Results on 3 substances are retold here after patent US20190252037A1.

Where two headings read alike, the source gives them in different places. Bounds are passed on as bounds.

Assay [1] addresses heterotrimeric polymerase from influenza A/little yellow-shouldered bat/Guatemala/060/2010 (H17N10), wild type (Influenza A/little yellow-shouldered bat/Guatemala/060/2010 (H17N10)).
Assay [2] has as its target 2-repeats (14 amino acids) Ser-5 phosphorylated CTD peptide, fluorescently labelled with FAM at the N-terminal end.
Assay [3] deals with 4-repeats (28 amino acids) Ser-5 phosphorylated CTD peptide, fluorescently labelled with FAM at the N-terminal end.
For assay [4] the target is unchanged. This is another data set of the same source.
In assay [5] the target is 4-repeats non-phosphorylated CTD peptide, fluorescently labelled with FAM at the N-terminal end.
Assay [6] addresses 2-repeats (14 amino acids) Ser-5 phosphorylated CTD peptide, fluorescently labelled with FAM at the N-terminal end. The source holds these as a separate data set.
Assay [7] deals with 4-repeats (28 amino acids) Ser-5 phosphorylated CTD peptide, fluorescently labelled with FAM at the N-terminal end. The source holds these as a separate data set.

With “Ser-5-phosphorylated 28-mer CTD peptide (four heptad repeats), not labelled”, the apparent KD (KD') in assay [1] is 2.7 µM.
For “heterotrimeric polymerase from influenza A/little yellow-shouldered bat/Guatemala/060/2010 (H17N10), wild type (enzyme)”, the Kd in assay [2] was 6.1 µM; in assay [3] it was 900 nM; in assay [4] it was 800 nM; in assay [5], above 10 µM.
“heterotrimeric polymerase from human influenza B/Memphis/13/03, wild type (enzyme)”: the values for the Kd in assay [6] and in assay [7] were 4.2 µM and 2900 nM, respectively.
